Results taken from US20210187091A1 (DUKE UNIVERSITY, published 2021).

T1: Man9-V3 glycopeptide (HIV-1 clade B JRFL, Man9GlcNAc2 at N301 and at N332; disulfide bridge between C296 and C331 (cyclized); biotin tag)
T1 construct: 30-amino acid synthetic V3 glycopeptide based on the clade B JRFL mini-V3 construct (residues 305-320 deleted); captured by its biotin on streptavidin sensors, or tetramerized on streptavidin for sorting; also called Man-V3 glycopeptide; Man9-V3-biotin
T1 peptide: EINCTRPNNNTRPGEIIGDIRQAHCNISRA


Assays:
Man9-V3 glycopeptide [1] = target: T1, Man9-V3 glycopeptide; test: BLI, biotinylated Man9-V3 on streptavidin sensors, antibody in solution
[2] = target: T2, cell surface membrane expressed CH848 TF Env trimer (CHO cells) (HIV-1 clade C (CH848 …)); test: flow cytometry on CHO cells expressing CH848 TF Env trimer
T2 construct: also called cell surface membrane expressed gp160 trimers; CH848 Env trimer expressed on the cell surface of CHO cells

Man9-V3 glycopeptide [3] = target: T1, Man9-V3 glycopeptide; test: BLI, biotinylated Man9-V3 on streptavidin sensors, antibody in solution, bivalent avidity model
Description: Kinetics analyses were performed by global curve fitting using bivalent avidity model and as described in methods (“Affinity measurements” section).
Antibody binding kinetic rate constants (ka, kd) of the Man9-V3 glycopeptide and its aglycone form (16) were measured by Bio-layer Interferometry (BLI, ForteBio Octet Red96) measurements. The BLI assay was performed using streptavidin coated sensors (ForteBio) to capture either biotin-tagged Man₉-V3 glycopeptide or Aglycone-V3 peptide. The V3 peptide immobilized sensors were dipped into varying concentrations of antibodies following blocking of sensors in BSA (0.1%). Antibody concentrations ranged from 0.5 to 150 μg/mL and non-specific binding interactions were subtracted using the control anti-RSV Palivizumab (Synagis) mAb. Rate constants were calculated by global curve fitting analyses to the Bivalent Avidity model of binding responses with a 10 min association and 15 min dissociation interaction time. The dissociation constant (Kd) values without avidity contribution were derived using the initial components of the association and dissociation rates (ka1 and kd1) respectively.

Row | Binder | binding result [2] | also measured
1 | DH270.IA3 (antibody, V domains shown) VH: EVQLVESGPELKEPGASVKVSCKASGYTFTDYYIHWVRQAPGQGLEWMAWINPTTGRSSFARGFQGRVIMTRETSVSTAYMELRRLRSDDTAVYYCAKAGYIALYVDYSGYPNFNSWGQGTLVTVSS VL: QSALTQPASVSGSPGQSITISCTGTSYDVGSYNLVSWYQQHPGKAPKLIIYEVSQWPSGVSKRFSGSKSGNTASLTISGLQAEDEAHYYCCSYAGSSTVIFGGGTSLTVL | – | Kd (Man9-V3 glycopeptide [1]): > 10000 nM
2 | DH270.IA4 (antibody, V domains shown, Inferred intermediate, recombinant IgG; copies: 2 + 2) VH: QVQLVQSGAEVKKPGASVKVSCKASGYTFTDYYIHWVRQAPGQGLEWMGWINPNTGRTNYAQKFQGRVTMTRDTSISTAYMELSRLRSDDTAVYYCARGGWIGLYYDSSGYPNFDYWGQGTLVTVSS VL: QSALTQPASVSGSPGQSITISCTGTSYDVGSYNLVSWYQQHPGKAPKLMIYEVSKRPSGVSNRFSGSKSGNTASLTISGLQAEDEADYYCCSYAGSSTVIFGGGTKLTVL | no binding (tested: 5 µg/mL) | –
3 | DH270.IA2 (antibody, V domains shown, Inferred intermediate, recombinant IgG) VH: QVQLVQSGAEMKKPGASVKVSCKASGYTFTDYYIHWVRQAPGQGLEWMGWINPNTGRTNYAQKFQGRVTMTRDTSISTAYMELSRLTSDDTAVYYCATGGWIGLYYDSSGYPNFDYWGQGTLVTVSS VL: QSALTQPASVSGSPGQSITISCTGTSYDVGSYNLVSWYQQHPGKAPKYMIYEVNKRPSGVSNRFSGSKSGNTASLTISGLQAEDEADYYCCSYAGSSTVIFGGGTKLTVL | no binding (tested: 5 µg/mL) | –
4 | DH270.UCA (antibody, V domains shown, also called UCA4; DH270UCA4) VH: not shown VL: QSALTQPASVSGSPGQSITISCTGTSSDVGSYNLVSWYQQHPGKAPKLMIYEVSKRPSGVSNRFSGSKSGNTASLTISGLQAEDEADYYCCSYAGSSTVIFGGGTKLTVL | no binding (tested: 5 µg/mL) | –
5 | DH270.6 (antibody, V domains shown, Recombinant IgG) VH: QVQLVQSGAQMKNPGASVKVSCAPSGYTFTDFYIHWLRQAPGQGLQWMGWMNPQTGRTNTARNFQGRVIMTRDTSIGTAYMELRSLTSDDTAIYYCTTGGWISLYYDSSYYPNFDHWGQGTLLTVSS VL: TSLLTQPASVSGSPGQSITISCTGTKYDVGSHDLVSWYQQYPGKVPKYMIYEVNKRPSGVSNRFSGSKSGNTASLTISGLRAEDEADYYCCSFGGSATVVCGGGTKVTVL | – | Kd (Man9-V3 glycopeptide [3]): 188 nM
